Assay results as given in IntAct's records for PubMed 20133654.

B1: Obscurin-like protein 1 (Homo sapiens), O75147 (parent)
chain: MKASSGDQGSPPCFLRFPRPVRVVSGAEAELKCVVLGEPPPVVVWEKGGQQLAASERLSFPADGAEHGLLLTAALPTDAGVYVCRARNAAGEAYAAAAVTVLEPPASDPELQPAERPLPSPGSGEGAPVFLTGPRSQWVLRGAEVVLTCRAGGLPEPTLYWEKDGMALDEVWDSSHFALQPGRAEDGPGASLALRILAARLPDSGVYVCHARNAHGHAQAGALLQVHQPPESPPADPDEAPAPVVEPLKCAPKTFWVNEGKHAKFRCYVMGKPEPEIEWHWEGRPLLPDRRRLMYRDRDGGFVLKVLYCQAKDRGLYVCAARNSAGQTLSAVQLHVKEPRLRFTRPLQDVEGREHGIAVLECKVPNSRIPTAWFREDQRLLPCRKYEQIEEGTVRRLIIHRLKADDDGIYLCEMRGRVRTVANVTVKGPILKRLPRKLDVLEGENAVLLVETLEAGVEGRWSRDGEELPVICQSSSGHMHALVLPGVTREDAGEVTFSLGNSRTTTLLRVKCVKHSPPGPPILAEMFKGHKNTVLLTWKPPEPAPETPFIYRLERQEVGSEDWIQCFSIEKAGAVEVPGDCVPSEGDYRFRICTVSGHGRSPHVVFHGSAHLVPTARLVAGLEDVQVYDGEDAVFSLDLSTIIQGTWFLNGEELKSNEPEGQVEPGALRYRIEQKGLQHRLILHAVKHQDSGALVGFSCPGVQDSAALTIQESPVHILSPQDRVSLTFTTSERVVLTCELSRVDFPATWYKDGQKVEESELLVVKMDGRKHRLILPEAKVQDSGEFECRTEGVSAFFGVTVQDPPVHIVDPREHVFVHAITSECVMLACEVDREDAPVRWYKDGQEVEESDFVVLENEGPHRRLVLPATQPSDGGEFQCVAGDECAYFTVTITDVSSWIVYPSGKVYVAAVRLERVVLTCELCRPWAEVRWTKDGEEVVESPALLLQKEDTVRRLVLPAVQLEDSGEYLCEIDDESASFTVTVTEPPVRIIYPRDEVTLIAVTLECVVLMCELSREDAPVRWYKDGLEVEESEALVLERDGPRCRLVLPAAQPEDGGEFVCDAGDDSAFFTVTVTAPPERIVHPAARSLDLHFGAPGRVELRCEVAPAGSQVRWYKDGLEVEASDALQLGAEGPTRTLTLPHAQPEDAGEYVCETRHEAITFNVILAEPPVQFLALETTPSPLCVAPGEPVVLSCELSRAGAPVVWSHNGRPVQEGEGLELHAEGPRRVLCIQAAGPAHAGLYTCQSGAAPGAPSLSFTVQVAEPPVRVVAPEAAQTRVRSTPGGDLELVVHLSGPGGPVRWYKDGERLASQGRVQLEQAGARQVLRVQGARSGDAGEYLCDAPQDSRIFLVSVEEPLLVKLVSELTPLTVHEGDDATFRCEVSPPDADVTWLRNGAVVTPGPQVEMAQNGSSRILTLRGCQLGDAGTVTLRAGSTATSARLHVRETELLFLRRLQDVRAEEGQDVCLEVETGRVGAAGAVRWVRGGQPLPHDSRLSMAQDGHIHRLFIHGVILADQGTYGCESHHDRTLARLSVRPRQLRVLRPLEDVTISEGGSATFQLELSQEGVTGEWARGGVQLYPGPKCHIHSDGHRHRLVLNGLGLADSGCVSFTADSLRCAARLIVREVPVTIVRGPHDLEVTEGDTATFECELSQALADVTWEKDGNALTPSPRLRLQALGTRRLLQLRRCGPSDAGTYSCAVGTARAGPVRLTVRERTVAVLSELRSVSAREGDGATFECTVSEVETTGRWELGGRPLRPGARVRIRQEGKKHILVLSELRAEDAGEVRFQAGPAQSLALLEVEALPLQMCRHPPREKTVLVGRRAVLEVTVSRSGGHVCWLREGAELCPGDKYEMRSHGPTHSLVIHDVRPEDQGTYCCQAGQDSTHTRLLVEGN

Variants of: B1
Settings: with titin_human TTN

Row | effect of a mutation on the interaction | Variant
1 | decreasing interaction | F17R
